US20230382979A1 (ADAPTIVE BIOTECHNOLOGIES, published 2023)

Experiments:
[1] = target: SARS-CoV-2 spike protein, WA1/2020, borne on lentiviral pseudovirus (SARS-CoV-2, WA01/2020 strain, UniProt P0DTC2 14-1273); assay: cell-based or functional assay
[2] = target: S2 subunit of the SARS-CoV-2 spike protein, WA01/2020 strain (SARS-CoV-2, WA01/2020 strain, UniProt P0DTC2 686-1213); assay: ELISA, antibody at 0.1 ug/mL
[3] = target: T1, SARS-CoV-2 nucleocapsid (N) protein (SARS-CoV-2, UniProt P0DTC9 1-419); assay: ELISA, antibody at 0.1 ug/mL
[4] = target: S1 subunit of the SARS-CoV-2 spike protein, WA01/2020 strain (SARS-CoV-2, WA01/2020 strain, UniProt P0DTC2 16-685); assay: ELISA screening, antibody concentration not given
[5] = target: T1, SARS-CoV-2 nucleocapsid (N) protein; assay: ELISA screening, antibody concentration not given

| Binder | Pseudo Neut, WA1/2020 IC50 (pM) [1] [pM] | binding result [2] | binding result [3] | binding result [4] | binding result [5] |
| --- | --- | --- | --- | --- | --- |
| antibody 2729 (antibody, V domains shown) VH: QVTLKESGPVLVKPTETLTLTCTVSGFSLSNARMGVSWIRQPPGKALEWLAHIFSNDEKSYSTYLKSRLTISKDSSKSQVVLTMTIMDPVDTATYYCARTAGRYSSRWGHYYYYMDVWGKGTTVTVSS VL: NFMLTQPHSVSESPGKTVTISCTGSNGSIASNFMQWYQQRPGSAPTIVIYEDNQRPSGVPDRFSGSIDGSSNSASLTISGLKTEDEADYYCQSYDSSDSDLGVFGGGTKLTVL | 584 | no binding (tested: 0.1 ug/mL) | no binding (tested: 0.1 ug/mL) | – | – |
| antibody 1679 (antibody, V domains shown) VH: QITLKESGPTLVKPTQTLTLTCTFSGFSLSTVGVGVAWIRQPPGKALEWLALIYWDDDKRYSPSLKSRLTITKDTSKNHVVLTMTNMDPVDTATYYCAHHIIAALVDVWGKGTTVTVSS VL: QSALTQPASVSGSPGQSITISCTGTSSDVGGNNYVSWYQHHPGEAPKLMIYEVSNRPSGVSNRFSGSKSGNTASLTISGLQAEDEADYYCSSYTTSSTLVVFGGGSKLTVL | > 163 | – | – | – | – |
| antibody 1864 (antibody, V domains shown) VH: QVQLQESGPGLVKPSETLSLTCTVSGGSINYYYWSWIRQPPGKGLEWIGFIYSSGTTNYNPSLKSRVTMSVDSSKSQFSLKLSSVTAADSAVYYCARHSRSCTNGVCQTYYYYALDVWGHGTTVTVSS VL: QSVLTQPPSVSGAPGQRVTISCTGSSSNIGAGYDVHWYQQLPGTAPKLLIYGNSNRPSGVPDRFSASKSGTSASLAIAGLQPEDEGDYYCQSYDGSLSESGVFGGGTRLTVL | – | – | – | no binding (tested: not printed) | no binding (tested: not printed) |
| antibody 1851 (antibody, V domains shown) VH: QVQLQESGPGLVKPSETLSLTCTVSGGSINYYYWSWIRQSPGKGLEWIGFIYSSGTTNYNPSLKSRVTMSVDSSKSQFSLKLSSVTAADSAVYYCARHSRSCTNGVCQTYYYYALDVWGHGTTVTVSS VL: QSVLTQPPSVSGAPGQRVTISCTGSSSNIGAGYDVHWYQQLPGTAPKLLIYGNSNRPSGVPDRFSASKSGTSASLAIAGLQPEDEGDYYCQSYDGSLSESGVFGGGTRLTVL | – | – | – | no binding (tested: not printed) | no binding (tested: not printed) |
| antibody 1870 (antibody, V domains shown) VH: QVQLQESGPGLVKPSETLSLTCSVSGGSINYYYWSWIRQPPGKGLEWIGFIYSSGTTNYNPSLKSRVTMSVDTSKNQFSLKLSSVTAADSAVYYCARHSRSCTNGVCQTYYYYALDVWGHGTTVTVSS VL: QSVLTQPPSVSGAPGQRVTISCTGSSSNIGAGYDVHWYQQLPGTAPKLLIYGNSNRPSGVPDRFSASKSGTSASLAIAGLQAEDEGDYYCQSYDGSLSESGVFGGGTRLTVL | – | – | – | no binding (tested: not printed) | no binding (tested: not printed) |
| antibody 2706 (antibody, V domains shown) VH: QVQLVQSGAEVKKPGSSVKVSCKASGGTFSTYAISWVRQAPGQGLEWMGGIIPLFATANYAQNFQGRVTITADKSTSTAYMELSSLRSEDTAVYYCASVRLHLEELSLSHQGDYYYGLDVWGQGTTVTVSS VL: DIQMTQSPSSLSASVADRVTITCQASQDISHYLNWYQQKPGKAPQLLIYDASKLETGAPSRFSGSGSGTDFTFTISSLQPEDIATYYCQQYDHLPLTFGGGSKVEIK | 795 | no binding (tested: 0.1 ug/mL) | no binding (tested: 0.1 ug/mL) | – | – |
| antibody 1231 (antibody, V domains shown) VH: QVQLVQSGSELKKPGASVKVSCTGYGYTFTSYAMNWVRQAPGQGLEWMGWINTNTGHPAYAQGFTGRFVFSLDSSVSTAYLQISSLKAEDTAVYYCATTIRAGGYFDFWGQGTLVTVSS VL: DIQLTQSPSFLSASVGDRVTITCRASQGISSYLAWFQQKPGKAPKLLIYVVSILQSGVPSRFSGSGSGTEFTLTISSLQPEDFATYYCQQLNSYPYTFGQGTKLEIK | 95000 | – | – | – | – |
| antibody 1213 (antibody, V domains shown) VH: QMQLVQSGAEVKKTGSSVKVSCEASENTFTNRYLHWVRQAPGQALEWMGWITPFQGNTHYAQKFQDRVTITRDRSMNTVYMELSSLRSEDTAIYYCASGGQYGPGSYYFEFWGQGTLVTVSS VL: EIVMTQSPATLSVSPGERATLSCRASQSIRNNLAWYRQKPGQAPRLLIYGASTRAAGVPARFSGSGSGTEFTLTISSLQSEDFAVYYCQQYINWPPLTFGGGTKVEIK | 90600 | – | – | – | – |
| antibody 1227 (antibody, V domains shown) VH: QMQLVQSGAEVKKTGSSVKVSCEASGYTFTNRYLHWVRQAPGQALEWMGWITPFQGNTNYAQKFQDRVTITRDMSMNTVYMELSSLRSEDTAKYYCASGGQYGAGSYYLEDWGQGTLVTVSS VL: EIVMTQSPATLSVSPGERATLSCRASQSVRSNLAWYRQKPGQAPRLLIYGASTRATGVPARFSGSGSGTEFTLTISSLQSEDFAVYYCQQYINWPPLTFGGGTRVEIK | 116000 | – | – | – | – |
| antibody 3086 (antibody, V domains shown) VH: QVQLQESGPGLVKPSETLSLTCTVSGGSISGHYWSWIRQPPGKGLEWIGYIYYSGSTNYNPSLKSRVTISVDTSVNQFSLKLSSVTAADTAVYYCARQEARDAVGNYFFDSWGQGTLVTVSS VL: QSALTQPASVSGSPGQSITISCSGTSSDIGSYDLVSWYQQHPGKAPKLLIYDVTKRPSGVSHRFSGSKSGNTASLTISGLQGEDEADYYCCSYVHFSTWVFGGGTKLTVL | 82 | – | – | – | – |
| antibody 2892 (antibody, V domains shown) VH: QVQLVQSGAEVKKPGSSVKVSCKASGDAFISYAISWVRQAPGQGLEWMGGIIPIFGTANYAQKFQGRVTISADESTSTAYMELSRLRSEDTAVYYCARGGPEPYGSGSGYTPRYNWFDPWGQGTLVTVSS VL: QSALTQPRSVSGSPGQSVTISCTGTSSDVGGYNYVSWYQQHPGKAPKFMIYDVNRRPSGVPDRFSGSKSGNTASLTISGLQAEDEADYYCCSYAGTYTWVFGGGTKLTVL | 65 | no binding (tested: 0.1 ug/mL) | no binding (tested: 0.1 ug/mL) | – | – |
| antibody 980 (antibody, V domains shown) VH: QVQLVESGGGVVQPGRSLRLSCAASGFTFSRYGMHWVRQAPGKGLEWVALISSGGSNKYYADSVKGRFTISRDNSKNTLYLEMNSLRAEDTAVYYCAKDAIYDYIWGAYRENWFDPWGQGTLVTVSS VL: DIQMTQSPSSLSASVGDRVTITCRASQSISNYLNWYQQKPGKAPNLLIYAASSLQSGVPSRFSGSGSGTDFTLTISSLQPEDFATYYCQQTSSPPLTFGQGTKVEIK | 952 | no binding (tested: 0.1 ug/mL) | no binding (tested: 0.1 ug/mL) | – | – |
| antibody 2619 (antibody, V domains shown) VH: EVQLVESGGGLVQPGRSLRLSCAASGFTFDDYAMHWVRQAPGKGLEWVSGISWNSGSIGYADSVKGRFTLSRDNAKNSLFLQMDSLRAEDTALYYCAKDVSYRSGSYYRFWGGSGSWGQGTLVTVSS VL: DIQMTQSPSSLSASVGDRVTITCRASLSIRSYLNWYQQKPGKPPKLLIYAASSLQSGVPSRFSGSGSGTDFTLTISSLQPEDFATYYCQQSYSTPLTFGGGTKVEIK | 213 | – | – | – | – |
| antibody 4441 (antibody, V domains shown) VH: EVQLVESGGGLVQPGRSLRLSCAASGLTFEDYAMHWVRQPPGKGLEWVSGVSWNSGTIGYADSVKGRFTISRDNAKNSLYLHMRSLGAEDTAMYYCAKDMGGRFSFFSLENDAFDIWGQGTMVIVSS VL: SYELTQPPSVSVSPGQTARITCSGDALPKQSTYWYQQKPGQAPVLVIYKDIERPSGIPERFSGSSSGTTVTLTISGVQAEDEADYYCQSADSSDTYVFGTGTKVTVL | 276 | no binding (tested: 0.1 ug/mL) | no binding (tested: 0.1 ug/mL) | – | – |
| antibody 1826 (antibody, V domains shown) VH: QVQLQESGPGLVKPSETLSLTCSVTGGSTNYYYWSWIRQPPGKGLEWIGYIYYSGTTNYNPSLKDRVTMSVDKSKTQLSLKLNSVTAADTAVYYCARHARHCTNGVCQTYYYYGLDVWGLGTTVAVSA VL: QSVLTQPPSVSAAPGQRVTISCSGSSSNIGAGYDVHWYQHLPGTAPKLLIYNNNNRPSGVPDRFSASRSGTSASLAITGVQTEDEADYYCQSFDGRLSESGVFGGGTKLTVL | – | – | – | no binding (tested: not printed) | no binding (tested: not printed) |
| antibody 2020 (antibody, V domains shown) VH: QVQLVQSGAEVKKPGASVKVSCKASGYTFTDYFMHWVRQAPGQGLEWMGWVNPLSGGTNFAQKFQGRVTMTSDTSITTVYMELSRLRSDDTAVYYCARDPPLYSSTYGMDVWGQGTTVTVSS VL: QSALTQPASVSGSPGQSITISCTGTSSDVGAYNYVSWYQQHPGKAPKLMIYDVSDRPSGVSNRFSGSKSGNTASLTISGLQAEDEADYYCSSYTISSSVVFGGGTKLTVL | 214 | no binding (tested: 0.1 ug/mL) | no binding (tested: 0.1 ug/mL) | – | – |
| antibody 935 (antibody, V domains shown) VH: EVQLVESGGGLVQPGGSLRLSCAASGFTVSSNYMSWVRQAPGKGLEWVSVIYSGGSTFYADSVKGRFTISRDNSRNTLYLQMNSLRAEDTAVYYCARDWGEFFFDFWGQGALVTVSS VL: EIVLTQSPGTLSLSPGERATLSCRASQTISSSYLAWYQQKPGQAPRLLISGASSRATGIPDRFSGSGSGTDFTLTISRLEPEDFAVYYCQQYGSSPRTFGQGTNVEIK | 420 | – | – | – | – |
